Reference: article PMC6441893

Target: biotinylated histone H3 peptide acetylated at K14 (residues 1-21)
Test: BLI; biotinylated H3 or H3K14ac peptide (25 nM) immobilised on streptavidin sensors; BD proteins at 1 or 2 uM; 25 °C; 20 mM Tris pH 7.5, 300 mM NaCl, 1 mM TCEP, 1 uM ZnCl2, 10% glycerol, 0.5 mg/mL BSA; apparent Kd from a double exponential fit

Substance	binding ratio, acetylated versus nonacetylated H3K14 peptide (H3:H3K14ac)
BD234 protein of PBRM1, GST removed (domain or fragment)	6.8
BD245 protein of PBRM1, GST removed (domain or fragment)	12.3
BD2 protein of PBRM1, GST removed (domain or fragment)	1.7
BD4 protein of PBRM1, GST removed (domain or fragment)	1.5
